# Measurements from US20060257938A1, “Method of screening for drugs that block ligand binding to a lipid binding protein” (priority 2005, published 2006).
# Numbering of substitutions follows the chain as printed.
# B1: L1P12 E8: FABP probe, mutations 14L 38A 72G 117F 114E vs SEQ ID NO: 2 (protein, listed as Rattus norvegicus)
# chain: AFDGTWKVDRNENLEKFMEKMGINVVKRKLGAHDNLKATITQEGNKFTVKESSNFRNIDVVFELGVDFAYSGADGTELTGTWTMEGNKLVGKFKRVDNGKELIAVREISGNELEQTFTYEGVEAKRIFKKE
# modifications: PEPTIDE (1)...(131) wild-type rat intestinal fatty acid binding protein
# B2: L1P14 D6: FABP probe, mutations 14M 72V 117W vs SEQ ID NO: 2 (protein, listed as Rattus norvegicus)
# chain: B1 chain with L14M, A38L, G72V, E114I, F117W
# modifications: PEPTIDE (1)...(131) wild-type rat intestinal fatty acid binding protein
# B3: L5P16 H4: FABP probe, mutations 126K 73F 72A vs SEQ ID NO: 2 (protein, listed as Rattus norvegicus)
# chain: B1 chain with L14Y, A38L, G72A, A73F, E114I, F117Y, R126K
# modifications: PEPTIDE (1)...(131) wild-type rat intestinal fatty acid binding protein
# B4: L2P22 B1: FABP probe, mutations 18Y 31V 55V 72A vs SEQ ID NO: 2 (protein, listed as Rattus norvegicus)
# chain: B1 chain with L14Y, M18Y, G31V, A38L, F55V, G72A, E114I, F117Y
# modifications: PEPTIDE (1)...(131) wild-type rat intestinal fatty acid binding protein
# B5: L1P5 H9: FABP probe, mutations 14M 72I 117W vs SEQ ID NO: 2 (protein, listed as Rattus norvegicus)
# chain: B1 chain with L14M, A38L, G72I, E114I, F117W
# modifications: PEPTIDE (1)...(131) wild-type rat intestinal fatty acid binding protein
# B6: L1P1 C12: FABP probe, mutations 38I 72W 117W vs SEQ ID NO: 2 (protein, listed as Rattus norvegicus)
# chain: B1 chain with L14Y, A38I, G72W, E114I, F117W
# modifications: PEPTIDE (1)...(131) wild-type rat intestinal fatty acid binding protein
# B7: L1P1 B4: FABP probe, mutations 14I 72W 117W vs SEQ ID NO: 2 (protein, listed as Rattus norvegicus)
# chain: B1 chain with L14I, A38L, G72W, E114I, F117W
# modifications: PEPTIDE (1)...(131) wild-type rat intestinal fatty acid binding protein
# Assay: Probe fluorescence intensity change with UCB:BSA
# Type: binding
# Conditions: 1:1 UCB:BSA, 440 nm
row,Molecule,ΔI/Io 1:1 UCB:BSA 440 nm
1,B1,−0.79
2,B2,−0.69
3,B3,−0.69
4,B4,−0.70
5,B5,−0.58
6,B6,−0.92
7,B7,−0.66

# Same assay, conditions: 1:1 UCB:BSA, 500 nm
row,Molecule,ΔI/Io 1:1 UCB:BSA 500 nm
1,B1,−0.70
2,B2,−0.64
3,B3,−0.64
4,B4,−0.68
5,B5,−0.63
6,B6,−0.86
7,B7,−0.64

# Same assay, conditions: 1:2 UCB:BSA, 440 nm
row,Molecule,ΔI/Io 1:2 UCB:BSA 440 nm
1,B1,−0.45
2,B2,−0.37
3,B3,−0.37
4,B4,−0.36
5,B5,−0.34
6,B6,−0.86
7,B7,−0.36

# Same assay, conditions: 1:2 UCB:BSA, 500 nm
row,Molecule,ΔI/Io 1:2 UCB:BSA 500 nm
1,B1,−0.39
2,B2,−0.33
3,B3,−0.31
4,B4,−0.35
5,B5,−0.34
6,B6,−0.79
7,B7,−0.35
